Square brackets hold non-standard residues; d marks the D form. Ends that are not written are not given here. hArg = N=C(N)NCCCC[C@H](N)C(=O)O; Aib = CC(C)(N)C(=O)O
T1: human PTH-1 receptor (human, UniProt Q03431 27-593)
T1 construct: whole, on cells; also called human PTHR1; human PTH receptor
T1 sequence (looked up): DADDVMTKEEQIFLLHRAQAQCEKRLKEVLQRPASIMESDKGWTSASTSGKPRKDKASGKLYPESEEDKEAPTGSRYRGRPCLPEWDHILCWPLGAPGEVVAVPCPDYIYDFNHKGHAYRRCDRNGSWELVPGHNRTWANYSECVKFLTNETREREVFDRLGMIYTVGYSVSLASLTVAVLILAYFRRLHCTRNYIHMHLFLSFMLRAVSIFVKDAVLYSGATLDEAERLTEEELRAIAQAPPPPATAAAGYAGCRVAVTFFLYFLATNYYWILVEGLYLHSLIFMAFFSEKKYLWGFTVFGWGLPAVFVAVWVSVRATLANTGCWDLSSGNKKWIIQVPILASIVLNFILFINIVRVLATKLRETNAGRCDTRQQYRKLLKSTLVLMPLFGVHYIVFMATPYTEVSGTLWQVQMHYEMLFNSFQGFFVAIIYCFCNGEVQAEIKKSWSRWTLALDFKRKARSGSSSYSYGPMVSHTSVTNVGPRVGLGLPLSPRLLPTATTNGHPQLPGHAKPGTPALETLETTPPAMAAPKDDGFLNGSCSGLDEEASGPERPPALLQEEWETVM

T2: rat PTH receptor (rat, UniProt P25961 27-591, limits assumed)
T2 construct: R0 and RG conformations assayed separately by the method of WO 2009/017809 or a similar one; also called rat PTHR1
T2 sequence (looked up): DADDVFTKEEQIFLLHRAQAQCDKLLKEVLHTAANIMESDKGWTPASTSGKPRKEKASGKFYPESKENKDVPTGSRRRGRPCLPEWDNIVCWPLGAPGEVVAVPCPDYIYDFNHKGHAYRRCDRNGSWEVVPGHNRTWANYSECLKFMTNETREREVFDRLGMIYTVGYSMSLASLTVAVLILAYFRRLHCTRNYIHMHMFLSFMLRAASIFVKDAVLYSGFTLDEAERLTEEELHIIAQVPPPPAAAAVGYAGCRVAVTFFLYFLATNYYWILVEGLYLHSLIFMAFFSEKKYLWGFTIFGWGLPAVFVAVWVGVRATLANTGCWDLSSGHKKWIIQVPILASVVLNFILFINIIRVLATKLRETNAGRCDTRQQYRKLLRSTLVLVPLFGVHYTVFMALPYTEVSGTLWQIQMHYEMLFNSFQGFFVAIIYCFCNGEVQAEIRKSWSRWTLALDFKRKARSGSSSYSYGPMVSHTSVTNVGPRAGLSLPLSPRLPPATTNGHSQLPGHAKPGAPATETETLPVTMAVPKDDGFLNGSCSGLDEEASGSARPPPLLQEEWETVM


Legend:
[1] = molecular target: T1, human PTH-1 receptor; assay: radioligand competition, human PTHR1 in COS-7 membranes, R0 conformation
Procedure: (§1) Here, competition binding assays for the R⁰ and RG PTHR1 conformation were performed in membranes prepared from transfected COS-7 cells, as described by Dean et al., Mol Endocrinol 22:156-66, 2008. Data are means of three experiments, each performed in duplicate. Curves were fit to the data using Graph-Pad Prism 4.0.

[2] = molecular target: T2, rat PTH receptor; assay: radioligand displacement, rat PTHR1, R0 conformation
[3] = molecular target: T2, rat PTH receptor; assay: radioligand displacement, rat PTHR1, RG conformation
[4] = molecular target: T1, human PTH-1 receptor; assay: radioligand competition, human PTHR1 in COS-7 membranes, RG conformation
Procedure: as §1

| Binder | IC50 [1] | IC50 [2] | IC50 [3] | IC50 [4] |
| --- | --- | --- | --- | --- |
| AVAEIQLMHQRAKWIQDLRRRFFLHHLIAEIHTAEI-OH (Synthetic hybrid analog of human PTH(1-14) and human PTHrP(15-36); also called Super-potent PTH; Mc-PTH(1-14)/rP(15-36)OH) [SP-PTH ([Ala1,3,12,Gln10,Arg11,Trp14]PTH(1-14)/PTHrP(15-36))] | 1.4 nM | 1.4 nM | 0.61 nM | 0.48 nM |
| AV[Aib]EIQLMHQ[hArg]AKWIQDARRRAFLHKLIAEIHTAEI-NH2 (N-terminus assumed; SMILES CC[C@H](C)[C@H](NC(=O)[C@H](CCC(=O)O)NC(=O)[C@H](C)NC(=O)[C@@H](NC(=O)[C@H](Cc1c[nH]cn1)NC(=O)[C@@H](NC(=O)[C@H](CCC(=O)O)NC(=O)[C@H](C)NC(=O)[C@@H](NC(=O)[C@H](CC(C)C)NC(=O)[C@H](CCCCN)NC(=O)[C@H](Cc1c[nH]cn1)NC(=O)[C@H](CC(C)C)NC(=O)[C@H](Cc1ccccc1)NC(=O)[C@H](C)NC(=O)[C@H](CCCNC(=N)N)NC(=O)[C@H](CCCNC(=N)N)NC(=O)[C@H](CCCNC(=N)N)NC(=O)[C@H](C)NC(=O)[C@H](CC(=O)O)NC(=O)[C@H](CCC(N)=O)NC(=O)[C@@H](NC(=O)[C@H](Cc1c[nH]c2ccccc12)NC(=O)[C@H](CCCCN)NC(=O)[C@H](C)NC(=O)[C@H](CCCCNC(=N)N)NC(=O)[C@H](CCC(N)=O)NC(=O)[C@H](Cc1c[nH]cn1)NC(=O)[C@H](CCSC)NC(=O)[C@H](CC(C)C)NC(=O)[C@H](CCC(N)=O)NC(=O)[C@@H](NC(=O)[C@H](CCC(=O)O)NC(=O)C(C)(C)NC(=O)[C@@H](NC(=O)[C@H](C)N)C(C)C)[C@@H](C)CC)[C@@H](C)CC)[C@@H](C)CC)[C@@H](C)CC)[C@@H](C)O)C(N)=O, Synthetic hybrid analog of human PTH(1-14) and human PTHrP(15-36); also called Super-potent Aib-AAK PTH; M-PTH(1-14)AAK-/rP(15-36)NH2) [Aib-SP-PTH-AAK ([Ala1,12,18,22,Aib3,Gln10,Har11,Trp14,Lys26]PTH(1-14)/PTHrP(15-36))] | 0.94 nM |  | 0.45 nM | 0.37 nM |

Further lines, results first:

| IC50 [1] | IC50 [2] | IC50 [3] | IC50 [4] | Binder |
| --- | --- | --- | --- | --- |
| 0.68 nM | 0.21 nM | 0.7 nM | 0.22 nM | AVAEIQLMHQRAKWIQDARRRAFLHKLIAEIHTAEI-OH (Synthetic hybrid analog of human PTH(1-14) and human PTHrP(15-36); also called Mc-PTH(1-14)/AAK-rP(15-36)OH; SP-AAK) [SP-PTH-AAK ([Ala1,3,12,18,22,Gln10,Arg11,Trp14,Lys26]PTH(1-14)/PTHrP(15-36))] |
| 0.95 nM | 1.5 nM | 0.9 nM | 0.45 nM | AV[Aib]EIQLMHQ[hArg]AKWLNSMRRVEWLRKKLQDVHNF-NH2 (N-terminus assumed; SMILES CC[C@H](C)[C@H](NC(=O)[C@H](CCC(=O)O)NC(=O)C(C)(C)NC(=O)[C@@H](NC(=O)[C@H](C)N)C(C)C)C(=O)N[C@@H](CCC(N)=O)C(=O)N[C@@H](CC(C)C)C(=O)N[C@@H](CCSC)C(=O)N[C@@H](Cc1c[nH]cn1)C(=O)N[C@@H](CCC(N)=O)C(=O)N[C@@H](CCCCNC(=N)N)C(=O)N[C@@H](C)C(=O)N[C@@H](CCCCN)C(=O)N[C@@H](Cc1c[nH]c2ccccc12)C(=O)N[C@@H](CC(C)C)C(=O)N[C@@H](CC(N)=O)C(=O)N[C@@H](CO)C(=O)N[C@@H](CCSC)C(=O)N[C@@H](CCCNC(=N)N)C(=O)N[C@@H](CCCNC(=N)N)C(=O)N[C@H](C(=O)N[C@@H](CCC(=O)O)C(=O)N[C@@H](Cc1c[nH]c2ccccc12)C(=O)N[C@@H](CC(C)C)C(=O)N[C@@H](CCCNC(=N)N)C(=O)N[C@@H](CCCCN)C(=O)N[C@@H](CCCCN)C(=O)N[C@@H](CC(C)C)C(=O)N[C@@H](CCC(N)=O)C(=O)N[C@@H](CC(=O)O)C(=O)N[C@H](C(=O)N[C@@H](Cc1c[nH]cn1)C(=O)N[C@@H](CC(N)=O)C(=O)N[C@@H](Cc1ccccc1)C(N)=O)C(C)C)C(C)C, M residues: Ala1,12, Aib3, Gln10, homoArg11, Trp14, Arg19; also called M-PTH(1-34).NH2; MGH# 1577) [M-PTH(1-34)] |

From patent US9492508B2, “Parathyroid hormone analogs and uses thereof” (The General Hospital Corporation, priority 2010, dated 2016)
